The text below walks through data of patent US20260049151A1 (SHENGHE CHINA BIOPHARMACEUTICAL, published 2026).

Experiment [1] addresses T1, Human-TNFR2-His (human, UniProt P20333 23-257).
T1 construct: Bought protein; also called human TNFR2 protein; TNFR2 protein; not shown: His tag
T1 sequence (looked up): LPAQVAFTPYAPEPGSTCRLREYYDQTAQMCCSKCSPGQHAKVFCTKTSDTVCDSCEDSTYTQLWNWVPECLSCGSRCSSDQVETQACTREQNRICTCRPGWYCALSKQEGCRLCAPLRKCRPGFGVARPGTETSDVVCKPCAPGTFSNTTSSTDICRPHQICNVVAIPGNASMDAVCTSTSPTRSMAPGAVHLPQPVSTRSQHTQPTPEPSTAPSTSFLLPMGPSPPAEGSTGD
Kind of experiment: ELISA: Human-TNFR2-His coated (0.1 ug/mL), antibody titrated, goat anti-human IgG Fc detection (Example 2). The method, then: (§1) Human-TNFR2-His (manufacturer: SINO, CAT: 10417-H08H, LOT: LC15NO0412) was diluted to 0.1 μg/mL with a coating solution (1×PBS, pH7.4), and coated in 96-well ELISA plate at 100 µL/well overnight at 4° C. The coating solution was poured off. Each well was washed with 1×PBST at 300 μL, washed 4 times with a plate washer, and patted dry on a flat paper. It was blocked with 3% skim milk powder at 300 μL/well, and incubated at 37° C. for 1 h. The blocking solution was poured off, washed 4 times with a plate washer, and patted dry on a flat paper. Negative control and positive control were set up. […] The positive control and antibody were diluted to 10 μg/mL with 3% skim milk powder as the starting concentration, and then diluted by 3-fold gradient (11 gradients in total), and a blank well was set up and only the diluent was added. It was incubated at 37° C. for 1 h at 100 μL/well. The liquid in the well was discarded, washed 4 times with a plate washer, and patted dry on a flat paper. Goat anti-human IgG Fc was diluted with 3% skim milk powder at 1:10000, and incubated at 37° C. for 1 h at 100 μL/well. It was washed 6 times with a plate washer, and patted dry on a flat paper. TMB color developing solution was added at 100 μL/well, and wrapped with aluminum foil. Color development was performed at 37° C. in the dark for 8 min. Termination solution 1M HCl was added to terminate the color development reaction at 100 μL/well. Readings were taken at 450 nm on an ELISA reader.
On the technique in general: ELISA stands for enzyme-linked immunosorbent assay.

For experiment [2], the target named is T2, Human 4-1BB His (human, UniProt Q07011 24-186).
T2 construct: Bought protein; lots 198-2146F1-W6 and 2407c-214FF1-YC; also called human 4-1BB protein; 4-1BB protein; not shown: His tag
T2 sequence (Q07011 24-186 limits assumed): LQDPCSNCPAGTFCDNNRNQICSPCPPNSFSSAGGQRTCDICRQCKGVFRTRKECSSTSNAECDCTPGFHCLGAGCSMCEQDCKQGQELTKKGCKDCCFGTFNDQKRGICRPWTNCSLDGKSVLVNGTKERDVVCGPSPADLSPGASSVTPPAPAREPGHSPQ
In words: bridging ELISA: Human TNFR2 mFc coated (0.3 ug/mL), antibody titrated, then Human 4-1BB His (0.3 ug/mL), HRP anti-His detection (Example 5). The protocol: (§2) Human TNFR2 mFc (manufacturer: Kaixia, CAT: TN-HM3R2, LOT: 031202) was diluted to 0.3 μg/mL with a coating solution (1×PBS, pH7.4) and coated into a 96-well ELISA plate at 100 μL/well at 4° C. overnight. The coating solution was poured off. Each well was washed with 1×PBST at 300 μL, washed 4 times with a plate washer, and patted dry on a flat paper. It was blocked with 3% skim milk powder at 300 μL/well, and incubated at 37° C. for 1 h. The blocking solution was poured off, washed 4 times with a plate washer, and patted dry on a flat paper. […] Starting at 50 nM, which was used as the initial concentration for 3-fold dilution, a total of 10 gradients were diluted, and a blank well was set up and only the diluent was added. It was incubated at 37° C. for 1 h at 100 µL/well. The liquid in the well was discarded, washed 4 times with a plate washer, and patted dry on a flat paper. Human 4-1BB His (manufacturer: Acro, CAT: 41B-H5258, LOT: 198-2146F1-W6) was diluted to 0.3 μg/mL, 100 μL was added to each well, and incubated at room temperature for 1 h. The plate was washed 3 times with PBST, and then the HRP-labeled his antibody was diluted with sample diluent at 1:5000, 100 μ L was added to each well, and incubated at room temperature for 1 h. It was washed 6 times with a plate washer, and patted dry on a flat paper. TMB color developing solution was added at 100 μL/well, and wrapped with aluminum foil. Color development was performed at 37° C. in the dark for 8 min. Termination solution 1M HCl was added to terminate the color development reaction at 100 μL/well. Readings were taken at 450 nm on an ELISA reader.

The next experiment addresses T3, Human TNFR2 mFc (human, UniProt P20333 23-257).
T3 construct: Bought protein; not shown: mFc
T3 sequence (looked up): T1 sequence (looked up)
Described as above. The protocol: as §2

Another experiment has as its target T4, Human 4-1BB Fc (human, UniProt Q07011 24-186).
T4 construct: same catalogue and lot number as Human 4-1BB His; not shown: Fc
Kind of experiment: bridging ELISA: Human 4-1BB Fc coated (0.3 ug/mL), antibody titrated, then Human-TNFR2-His (0.3 ug/mL), HRP anti-His detection (Example 4). The protocol: Human 4-1BB Fc (manufacturer: Acro, CAT: 41B-H5258, LOT: 198-2146F1-W6) was diluted to 0.3 μg/mL with a coating solution (1×PBS, pH7.4) and coated into a 96-well ELISA plate at 100 µL/well at 4° C. overnight. The coating solution was poured off. Each well was washed with 1×PBST at 300 μL, washed 4 times with a plate washer, and patted dry on a flat sheet. It was blocked with 3% skim milk powder at 300 μL/well, and incubated at 37° C. for 1 h. The blocking solution was poured off, washed 4 times with a plate washer, and patted dry on a flat sheet. […] Starting at 50 nM, which was used as the initial concentration for 3-fold dilution, a total of 10 gradients were diluted, and a blank well was set up and only the diluent was added. It was incubated at 37° C. for 1 h at 100 μL/well. The liquid in the well was discarded, washed 4 times with a plate washer, and patted dry on a flat paper. Human-TNFR2-His (manufacturer: Sino, CAT: 10417-H08H, LOT: LC15NO0412) was diluted to 0.3 μg/mL, 100 μL was added to each well, and incubated at room temperature for 1 h. The plate was washed 3 times with PBST, and then the HRP-labeled his antibody was diluted with sample diluent at 1:5000, 100 μ L was added to each well, and incubated at room temperature for 1 h. It was washed 6 times with a plate washer, and patted dry on a flat paper. TMB color developing solution was added at 100 μL/well, and wrapped with aluminum foil. Color development was performed at 37° C. in the dark for 8 min. Termination solution 1M HCl was added to terminate the color development reaction at 100 μL/well. Readings were taken at 450 nm on an ELISA reader.

Experiment [3] has as its target T1, Human-TNFR2-His. Kind of experiment: ELISA: Human-TNFR2-His coated (0.1 ug/mL), antibody titrated, goat anti-human IgG Fc detection (Example 2). The protocol:
as §1
The source holds these as a separate data set.

Experiment [4] has as its target T2, Human 4-1BB His. Kind of experiment: ELISA: Human 4-1BB His coated (0.2 ug/mL), antibody titrated, goat anti-human IgG Fc detection (Example 3). The protocol:
(§3) Human 4-1BB His (manufacturer: Acro, CAT: 41B-H5258, LOT: 198-2146F1-W6) was diluted to 0.2 μg/mL with a coating solution (1×PBS, pH7.4), and coated in 96-well ELISA plate at 100 μL/well overnight at 4° C. The coating solution was poured off. Each well was washed with 1×PBST at 300 μL, washed 4 times with a plate washer, and patted dry on a flat paper. It was blocked with 3% skim milk powder at 300 μL/well, and incubated at 37° C. for 1 h. The blocking solution was poured off, washed 4 times with a plate washer, and patted dry on a flat paper. Negative control and positive control were set up. […] The variable region of the antibody sequence of the positive control consists of SEQ ID NO: 15 and SEQ ID NO: 19, with the addition of the constant region of human IgG1 (SEQ ID NO: 46 and SEQ ID NO: 47). The positive control and antibody were diluted to 10 μg/mL with 3% skim milk powder as the starting concentration, and then diluted by 3-fold gradient (11 gradients in total), and a blank well was set up and only the diluent was added. It was incubated at 37° C. for 1 h at 100 μL/well. The liquid in the well was discarded, washed 4 times with a plate washer, and patted dry on a flat paper. Goat anti-human IgG Fc was diluted with 3% skim milk powder at 1:20000, and incubated at 37° C. for 1 h at 100 μL/well. It was washed 6 times with a plate washer, and patted dry on a flat paper. TMB color developing solution was added at 100 μL/well, and wrapped with aluminum foil. Color development was performed at 37° C. in the dark for 8 min. Termination solution 1M HCl was added to terminate the color development reaction at 100 μL/well. Readings were taken at 450 nm on an ELISA reader.

In experiment [5] the target is T2, Human 4-1BB His. The experiment is described as above. The method, then:
as §3
The source holds these as a separate data set.

Read-outs that look alike come from different tables or passages of the source.

In general, EC50 (read off the curve) refers to the concentration needed to bring the measured effect to its halfway point. The low end stands for an effect from little substance, the high end for a need for much substance.

T4 sequence (Q07011 24-186 limits assumed): as above

B1: Antibody B (bispecific antibody, human IgG1, kappa)
light: DIQMTQSPSSLSASLGDRVTISCSASQGISNYLNWYQQKPDGTVKLLIYYTSTLHSGVPSRFSGSGSGTDYTLTISSLQPEDIATYYCQQYSKLPWTFGGGTKLEIKRTVAAPSVFIFPPSDEQLKSGTASVVCLLNNFYPREAKVQWKVDNALQSGNSQESVTEQDSKDSTYSLSSTLTLSKADYEKHKVYACEVTHQGLSSPVTKSFNRGECGGGGSGGGGSEVQLVQSGAEVKKPGATVKISCKVSGYSITDYLLHWVQQAPGKCLEWMGWIDPEDAKTKYGQKFQSRVTITADTSTDTAYMELSSLRSEDTAVYYCAANSGTGTMDAWGQGTLVTVSSGGGGSGGGGSGGGGSDIVMTQSPATLSVSPGERATLSCKASQNVGSNVDWYQQKPGQSPRVLIYKASIRYTGIPARFSGSGSGTEFTLTISILQSEDFAVYFCMQSKSYPITFGCGTKLEIK
heavy: not shown
notes: IgG1 subtype; full-length 4-1BB antibody with TNFR2 scFv at the C-terminus of the light chains
With B1, the binding result in the experiment with Human-TNFR2-His [1], in the experiment with Human 4-1BB His [2] and with Human TNFR2 mFc was “binds” each time.

B2: Antibody F (bispecific antibody, human IgG1, kappa)
light: DIVMTQSPATLSVSPGERATLSCKASQNVGSNVDWYQQKPGQSPRVLIYKASIRYTGIPARFSGSGSGTEFTLTISILQSEDFAVYFCMQSKSYPITFGQGTKLEIKRTVAAPSVFIFPPSDEQLKSGTASVVCLLNNFYPREAKVQWKVDNALQSGNSQESVTEQDSKDSTYSLSSTLTLSKADYEKHKVYACEVTHQGLSSPVTKSFNRGECGGGGSGGGGSQVQLQESGPGLVKPSETLSLTCTVSGSSLTSYGVHWVRQPPGKCLEGLGVIWPGGSTNYNSALMSRVTISKDNSKSQVSLKMSSLTAADTAVYYCARVTGTWYFDVWGQGTTVTVSSGGGGSGGGGSGGGGSDIQMTQSPSSLSASLGDRVTISCSASQGISNYLNWYQQKPDGTVKLLIYYTSTLHSGVPSRFSGSGSGTDYTLTISSLQPEDIATYYCQQYSKLPWTFGCGTKLEIK
heavy: not shown
notes: IgG1 subtype; full-length TNFR2 antibody with 4-1BB scFv at the C-terminus of the light chains
On to B2, for which the “EC50 (read off the curve)” value with Human TNFR2 mFc is approximately 0.2 nM; with Human 4-1BB Fc, approximately 0.4 nM; with Human-TNFR2-His [3] it was approximately 0.08 nM; with Human 4-1BB His [4] it was approximately 0.3 nM.

B3: Antibody D (bispecific antibody, human IgG1, kappa)
light: EVQLVQSGAEVKKPGATVKISCKVSGYSITDYLLHWVQQAPGKCLEWMGWIDPEDAKTKYGQKFQSRVTITADTSTDTAYMELSSLRSEDTAVYYCAANSGTGTMDAWGQGTLVTVSSGGGGSGGGGSGGGGSDIVMTQSPATLSVSPGERATLSCKASQNVGSNVDWYQQKPGQSPRVLIYKASIRYTGIPARFSGSGSGTEFTLTISILQSEDFAVYFCMQSKSYPITFGCGTKLEIKGGGGSGGGGSGGGGSDIQMTQSPSSLSASLGDRVTISCSASQGISNYLNWYQQKPDGTVKLLIYYTSTLHSGVPSRFSGSGSGTDYTLTISSLQPEDIATYYCQQYSKLPWTFGGGTKLEIKRTVAAPSVFIFPPSDEQLKSGTASVVCLLNNFYPREAKVQWKVDNALQSGNSQESVTEQDSKDSTYSLSSTLTLSKADYEKHKVYACEVTHQGLSSPVTKSFNRGEC
heavy: not shown
notes: IgG1 subtype; full-length 4-1BB antibody with TNFR2 scFv at the N-terminus of the light chains
As for B3, the binding result in the experiment with Human 4-1BB His [2], in the experiment with Human TNFR2 mFc and with Human-TNFR2-His [3] was “binds” throughout.

B4: Antibody C (bispecific antibody, human IgG1, kappa)
light: DIQMTQSPSSLSASLGDRVTISCSASQGISNYLNWYQQKPDGTVKLLIYYTSTLHSGVPSRFSGSGSGTDYTLTISSLQPEDIATYYCQQYSKLPWTFGGGTKLEIKRTVAAPSVFIFPPSDEQLKSGTASVVCLLNNFYPREAKVQWKVDNALQSGNSQESVTEQDSKDSTYSLSSTLTLSKADYEKHKVYACEVTHQGLSSPVTKSFNRGEC
heavy: not shown
notes: IgG1 subtype; full-length 4-1BB antibody with TNFR2 scFv at the N-terminus of the heavy chains
As for B4, the “EC50 (read off the curve)” value is approximately 0.06 nM with Human-TNFR2-His [1], approximately 0.2 nM with Human TNFR2 mFc, approximately 0.1 nM with Human 4-1BB His [5] and approximately 0.5 nM with Human 4-1BB Fc.
